Assays:
HLA-B*46:01 = test: IEDB peptide-MHC binding, purified MHC/direct/fluorescence; filed as Kd, often an IC50 or EC50 that approximates it; ≥ and ≤ were set here for values at or beyond the usual limits of such assays; settings: source organism: Dengue virus
HLA-B*15:02 = test: as above; settings: source organism: dengue virus type 1
HLA-A*30:02 = test: IEDB peptide-MHC binding, purified MHC/competitive/radioactivity; filed as Kd, often an IC50 or EC50 that approximates it; ≥ and ≤ were set here for values at or beyond the usual limits of such assays; settings: source organism: Dengue virus 1 Brazil/97-11/1997
HLA-C*15:02 = test: IEDB peptide-MHC binding, purified MHC/direct/fluorescence; filed as Kd, often an IC50 or EC50 that approximates it; ≥ and ≤ were set here for values at or beyond the usual limits of such assays; settings: source organism: Bacillus anthracis str. A0488
HLA-B*83:01 = test: IEDB peptide-MHC binding, purified MHC/competitive/fluorescence; filed as Kd, often an IC50 or EC50 that approximates it; ≥ and ≤ were set here for values at or beyond the usual limits of such assays; settings: source organism: Bacillus anthracis str. A0488
HLA-B*45:06 = test: as above; settings: source organism: Bacillus anthracis str. A0488
HLA-B*40:13 = test: as above; settings: source organism: Bacillus anthracis str. A0488
HLA-B*27:20 = test: as above; settings: source organism: Bacillus anthracis str. A0488
HLA-A*03:19 = test: as above; settings: source organism: Bacillus anthracis str. A0488
HLA-A*32:07 = test: as above; settings: source organism: Bacillus anthracis str. A0488
HLA-C*06:02 = test: as above; settings: source organism: Bacillus anthracis str. A0488
HLA-A*24:03 = test: as above; settings: source organism: Bacillus anthracis str. A0488
HLA-B*15:42 = test: as above; settings: source organism: Bacillus anthracis str. A0488

Question: Which results are given for KLEGKIVQY?
Answer: Kd (HLA-B*46:01): ≥ 20 µM; Kd (HLA-B*15:02): ≥ 20 µM; Kd (HLA-A*30:02): 833 nM

Question: With RFFKHFMSL as the sequence, how does the Kd (HLA-C*15:02) read?
Answer: 1570 nM

Question: And the Kd (HLA-B*83:01)?
Answer: ≥ 5 µM

Question: What about the Kd (HLA-B*45:06) of the same sequence?
Answer: ≥ 5 µM

Question: And the Kd (HLA-B*40:13)?
Answer: 5.2 nM

Question: What about the Kd (HLA-B*27:20) of the same sequence?
Answer: 16.1 nM

Question: What about the Kd (HLA-A*03:19) of the same sequence?
Answer: 46.1 nM

Question: What about the Kd (HLA-A*32:07) of the same sequence?
Answer: 0.4 nM

Question: And the Kd (HLA-C*06:02)?
Answer: 1190 nM

Question: And the Kd (HLA-A*24:03)?
Answer: ≤ 0.1 nM

Question: And the Kd (HLA-B*15:42)?
Answer: ≥ 5 µM
